From a protein production outcome set (Wang et al. 2014)

Assay: label from the status in PepcDB records
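Further: failed if final PepcDB status was selected cloned or expressed and not failed if soluble or beyond.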

## MSLDSISLIKTPIEAELEDFKALFDTPLSDSNALLDSVITHIRKRNGKMMRPILVLLVARLYGAVTPATLHAAVSLELLHTASLVHDDVVDESTERRGQLSVNAIFNNKVSVLAGDYLLATSLVHAEQTNNYEIIRLVSSLGQKLAEGELLQLSNVSNHSFSEEVYFDVIRKKTAALFAACAEAAALSVQVGEEEVAFARLLGEYIGICFQIKDDIFDYFDSKKIGKPTGNDMLEGKLTLPALYALNTTKDAWAEQIAFKVKEGTATPDEIVRLIEFTKDNGGIEYACRTIEQYKKKAFDLLAALPDSNICLALRTYLDYVVAREKEGHHHHHH
  protein production: not failed

## MSLDSRKPGHRPVTMRDVAKAAGVSRMTVSRALKKDSPISSETRERILKVVKDMNYVPDQVAGSLTTKRSGFVGLLLPSLNNLHFAQTAQSLTDVLEQGGLQLLLGYTAYSPEREEQLVETMLRRRPEAMVLSYDGHTEQTIRLLQRASIPIVEIWEKPAHPIGHTVGFSNERAAYDMTNALLARGFRKIVFLGEKDDDWTRGAARRAGFKRAMREAGLNPDQEIRLGAPPLSIEDGVAAAELILQEYPDTDCIFCVSDMPAFGLLSRLKSIGVAVPEQVSVVGFGNFEVSRFASPEISTVRVDPIAIGRETGSLILRLLDPKQRSPQTAQHITLPPVLEFRPSLKNEGHHHHHH
  protein production: not failed

## MSLDTVDKLVVFLAKRDGIDKLVKTFQYVAKLACWHVEATRPEAADRFKKWEVASGLSRKAFRTGRSLTGFNALRRNPGATPMIRFLAVLANSGEMVYFFFDHFLWLSRIGSIDAKLAKKMSFISAFGESFGYTFFIIIDCIFIKQRLKSLKKLQHSTDEPKEEIGAKISEIRGDIVMRLMGISANVADLLIALAEIHPNPFCNHTITLGISGLVSAWAGWYRNWPS
  protein production: failed

## MSLEAGAGAPLARYAAWRRAGDFIFLSGIIPVNPLTGTIVNGFQDVPEPVRELLGATGEFSTDAKQGPILAQSWYVLESIRRTVASAGGQMSDVIKLVQYFRNLDHFPYYSRVRKLFYPDQPPVSTVVQVSEMLPDATVLIEVEATVWLPPSFNSEAEGHHHHHH
  protein production: not failed

## MSLEAIHRSTRIEFSKSSLAYNVQYTKQVSGAKTLWLAVKSNAYGHGLLQVSKIARECGVDGLAVSVLDEGIAIRQAGIDDFILILGPIDVKYAPIASKYHFLTTVSSLDWLKSADKILGKEKLSVNLAVDTGMNRIGVRSKKDLKDEIEFLQEHSDHFSYDGIFTHFASSDNPDDHYFQRQKNRWYELIDGLIMPRYVHVMNSGAAMYHSKELPGCNSIARVGTVVYGVEPSEGVLGPIDKLKPVFELKSALTFVKKIPAGEGISYGSKFVTSRDTWIGTLPIGYGDGWLAEYQDFQLLIDGQKCRQVGQIAMDQMMVALPHEYPIGTEVTLIGKSGKYENTLYDLHKHSGVPPWKITVAFSDRLKRMVVDEGHHHHHH
  protein production: not failed

## MSLEILTAGPMLTVQDAGRFGLRHMGVSPAGPIDRAAMALANALVGNDPGAAALEFAGPAGRFRCDRPVRFAVAGADCPLRIDARTVSPGESHRLNPGETLTVGVPEGAVWAYLAFSGAIASPEVLGSRATHLRSGVGGRALGAGDRLPLGEDDPEAPCLRPGLRLEAAAPFRETGPIRLILGPQDDHFAPEVIARLTGCDFTVTPQRDRMAMVLGGVELPAERGHDIVSDGTVPGSVQVPGSGTPLVLLAESQTTGGYPKIGTVASVDLARLAQMPVGARFRFALISAREGEDLWIARQAR
  protein production: failed

## MSLEPSQIMPLSVLIAEDNDICRLVAAKALEKCTNDITVVTNGLQALQAYQNRQFDVIIMDIQMPVMDGLEAVSEIRNYERTHNTKRASIIAITADTIDDDRPGAELDEYVSKPLNPNQLRDVVLTCHSEGAEGHHHHHH
  protein production: not failed

## MSLERNYEESALFEHQFWLKVLTDHAQFLLDALAPKEKEDIKKATYFVETFTNLLNKVRNVNLMAFSKEAEQAAKEIRAFKLNIIQKQLEGKITIHFTPTFINHMVNEVEEYIAVLEFLKKGEVPPVFHELHYHLVWLTDAAGHAGSISGGLDLVEKRLKEKSEEFTKHFEQFYLKAVEMTGYLRTELHHFPALKKFTKDVSLELKLFSHFLHEVEELELSNEVLSVLSARMADHMAREECYYLLKLAQSSGLEMPKCNPLEGHHHHHH
  protein production: not failed

## MSLFTCEDPAVWKAVHNKYWTVVEAKSAGKRKTSGKLLQLDKWFQEDLPAAITARPERFLTHAELVKIMEWKLTKGKFRPRLQQLIGSNNEEAVQSSSSKAFSLLPDVQAAIKELCKLKGVGSATASAVLVAGAPDKVAFMADEAVESIAELRPVEYTDKHYALYLQKMLWKTSELNKVDAQQDWTPHRVEQCLWTWTVANQIQPSLLQGVSLKDATNQKPEKRKTADEKPSKRKKTE
  protein production: failed

## MSLGHIIVTGAGSGLGRALTIGLVERGHQVSMMGRRYQRLQQQELLLGNAVIGIVADLAHHEDVDVAFAAAVEWGGLPELVLHCAGTGEFGPVGVYTAEQIRRVMESNLVSTILVAQQTVRLIGERGGVLANVLSSAAQVGKANESLYCASKWGMRGFLESLRAELKDSPLRLVNLYPSGIRSEFWDNTDHVDPSGFMTPEDAAAYMLDALEARSSCHVTDLFIGRNEGHHHHHH
  protein production: not failed

## MSLGIIRSILDTDLYKFTTGYAYAKLFPRAYGEFRFIDRNRQGFTEEFAELVRGEIRAMAALSLTRDEKEFLQRELPYLPPIYIDFLDGFRFDPEEVTVSIDAQGHLDIRAQGLLYRVTLWETPILAVISELYYRFIGAKPDWKQVEEVTRSKGELMREHRTTFSIFGMRRRFSLEVEDRVTDILKQYAGESLFGTSNVHLAHKHGLRVSGTHPHEWIQFHGAIYGYKMANYVAMEDWINVYDGDLGTVLTDTYTTDVFMRNFSKKHAMLFTSLRHDSGDPEIFIEKAVRRYEELRVDPKIKYIIFSDSLTPQRAIEIQKLCAGRIKASFGIGTNLTNDVGGGVEPLNIVMKLWKCKMTAKDDWHYCVKLSDVDGKHTGEPEEILLAMNTLGIKPKEGHHHHHH
  protein production: not failed

## MSLGKRIFVFDTTLRDGEQVPGCQLNTEEKIIVAKALDELGVDVIEAGFPVSSPGDFNSVVEITKAVTRPTICALTRAKEADINIAGEALRFAKRSRIHTGIGSSDIHIEHKLRSTRENILEMAVAAVKQAKKVVHEVEFFCEDAGRADQAFLARMVEAVIEAGADVVNIPDTTGYMLPWQYGERIKYLMDNVSNIDKAILSAHCHNDLGLATANSLAALQNGARQVECTINGIGERAGNTALEEVVMAMECHKETLGLETGINHKKLVPISHLVSTLMRMQVQSNKAIVGRNAFAHSSGIHQDGFLKHRETYEIIDEGHHHHHH
  protein production: not failed

## MSLGQTTLACSFRSLTNPYYTAFNKGAQSFAKSVGLPYVPLTTEGSSEKGIADIRALLQKTGGNLVLNVDPNDSADARVIVEACSKAGAYVTTIWNKPKDLHPWDYNPNYVAHLSYDGVAYGEETATQLFKSMGGKGGVVALGGIFSNVPAIERKAGLDAALKKFPGIQLLDFQVADWNSQKAFPIMQAWMTRFNSKIKGVWAANDDMALGAIEALRAEGLAGQIPVTGMDGTQPGLVAIKSGELVASVDWDPFWLGGIGLSMGLQAKEKKIDLATLPKDRRESFCTATFVTKTNVQDVIARAASPKAEWNNLYARVAGPVVYREGHHHHHH
  protein production: not failed

## MSLGRKQQYGTLASIAAKLGISRTTVSNAYNRPEQLSAELRQRILDTAEDMGYLGPDPVARSLRTRRAGAIGVLLTEDLTYAFEDMASVDFLAGVAQAAGDTQLTLIPASPASSVDHVSAQQLVNNAAVDGVVIYSVAKGDPHIDAIRARGLPAVIADQPAREEGMPFIAPNNRKAIAPAAQALIDAGHRKIGILSIRLDRANNDGEVTRERLENAQYQVQRDRVRGAMEVFIEAGIDPGTVPIMECWINNRQHNFEVAKELLETHPDLTAVLCTVDALAFGVLEYLKSVGKSAPADLSLTGFDGTHMALARDLTTVIQPNKLKGFKAGETLLKMIDKEYVEPEVELETSFHPGSTVAEGHHHHHH
  protein production: not failed

## MSLHPHAMPDMGPDMNKVPWMGDEQIAMLVYPGMTVMDLVGPHCMFGSLMGAKIYIVAKSLDPVTSDAGLAIVPTATFGTCPRDLTVLFAPGGTDGTLAAASDAETLAFMADRGARAKYITSVCSGSLILGAAGLLKGYKATSHWSCRDALAGFGAIPTEARVVRDRNRITGAGVTAGLDFGLSMVAELRDQTYAECAQLMSEYDPDPPFNAGSMKTAPAHVRTAMIELVAEFTKKADALAGFPKEGHHHHHH
  protein production: not failed
